For the experiment, the target named is human integrin β5 (human) (UniProt P18084). Put plainly: cell-based or functional assay.
Sequence of UniProt P18084 (P18084 24-799 limits assumed): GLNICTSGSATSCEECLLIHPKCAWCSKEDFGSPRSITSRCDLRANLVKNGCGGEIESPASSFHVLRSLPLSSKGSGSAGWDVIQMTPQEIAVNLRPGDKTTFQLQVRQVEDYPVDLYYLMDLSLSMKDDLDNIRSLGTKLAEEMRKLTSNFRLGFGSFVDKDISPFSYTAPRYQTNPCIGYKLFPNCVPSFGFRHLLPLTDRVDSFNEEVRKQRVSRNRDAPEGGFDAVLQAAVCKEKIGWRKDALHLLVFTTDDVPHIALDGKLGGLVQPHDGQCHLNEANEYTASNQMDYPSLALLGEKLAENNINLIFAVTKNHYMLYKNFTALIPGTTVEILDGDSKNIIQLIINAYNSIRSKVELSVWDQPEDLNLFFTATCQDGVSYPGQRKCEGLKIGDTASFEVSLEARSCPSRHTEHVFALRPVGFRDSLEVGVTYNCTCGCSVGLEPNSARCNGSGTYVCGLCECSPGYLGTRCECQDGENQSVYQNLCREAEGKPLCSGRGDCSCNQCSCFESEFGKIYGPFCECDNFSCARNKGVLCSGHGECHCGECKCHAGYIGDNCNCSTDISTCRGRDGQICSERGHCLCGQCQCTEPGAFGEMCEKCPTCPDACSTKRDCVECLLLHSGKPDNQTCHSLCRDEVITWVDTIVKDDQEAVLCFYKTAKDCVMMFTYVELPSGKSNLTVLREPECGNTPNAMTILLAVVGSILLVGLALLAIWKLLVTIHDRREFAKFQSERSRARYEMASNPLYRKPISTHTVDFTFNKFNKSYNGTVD

Consider “anti-integrin β5 antibodies (model number D24A5, rabbit monoclonal antibodies #3629, commercially available from Cell Signaling Technology) (antibody)”, for which the Brightness (integration, A.U.) of plate of HPF cells after exosome introduction; integrin β5-introduced exosome + anti-integrin β5 antibodies (6.1 × 10^6 without antibodies) stood at 5.1e+06 A.U.

The record behind these values is US20250057776A1.
